According to the DeepSol protein solubility set:

Assay: soluble on expression in E. coli; label from the status in PepcDB or PDB records

Row | Sequence | soluble on expression in E. coli
1 | MGSDKIHHHHHHMLNPREIRTIEDAKRIVEERQLTHVKVGLFDIDGVMLGKYMSRNKFFSALEHGFAFCDVILGWDSKDKLYDNVKYTGWHTGYPDASVRIVPSTCREILFEENQLLFMAEFSQAAEAICPRGILRRVINKAAGMGYDVYAALEYEFFVFDETPDSVRAKGFRNLKPVTPDNFGYSIIRNTVHAEFYHQILTMAEKMDFPIEGLHTETGPGVLEAAIAVDDAEAAGDKAALFKTFMKILAQRNNKMATFMAKWSGDYPGQSGHIHLSLRDRDGGKSAFYESGREYNMSKIQRHFLAGQQKLMPEFLAMLSPTVNSYSRLIPGYWAPTEATWGVENRTTALRVIPGSDKSQRIEYRLGSADANPYLALAAAIGSGLYGIENELEPEAEVKGNSYEQHHSPALALPRTLWESAQNLKNSSAAYELFGQEFVEHFAASREWEEREFRKHITDWELDRYFEII | not soluble
2 | MTNLPMNKLIDEVNNELSVAINKSVMDTQLEESMLYSLNAGGKRIRPVLLLLTLDSLNTEYELGMKSAIALEMIHTYSLIHDDLPAMDNDDYRRGKLTNHKVYGEWTAILAGDALLTKAFELISSDDRLTDEVKIKVLQRLSIASGHVGMVGGQMLDMQSEGQPIDLETLEMIHKTKTGALLTFAVMSAADIANVDDTTKEHLESYSYHLGMMFQIKDDLLDCYGDEAKLGKKVGSDLENNKSTYVSLLGKDGAEDKLTYHRDAAVDELTQIDEQFNTKHLLEIVDLFYSRDHKGHHHHHH | soluble
3 | MGSDKIHHHHHHMATQRGTTAPPQTGSEQTGSVAGAGNARASLGVDGAVRLATSSVTTQSYAREFARLFNVDTAHTLTTTSLKTAQLTATHMCSSVHGLGKSTPLPTEDAYILSLQLQHSGGAELWKRGRRVPTEPYAPGSIMLGHLSDEPVANLPDPFECILFHIPRPAFDELCGLSALPPVGELDDVNRTIDPVLHHLGLALVPAMADPQLAGSLFFDHVAHAMYERLATTYGRFRGTLPPRGRVLSKTQERIAKELLVADLLVEPPLSDIALACGLSVRQFVDAFRSTTGMPPFRWLRAYRIERAKELLRRTSFSLAEIGAACGFADQSHFTRTFSAATGTTPGDWRRACGA | not soluble
4 | MEVIRSQKRTVSNDVVSTPTLPLYLTAPHMEVRLEEFELFAIDRLRVLKGVSDGLARARNPNEMDDLVETLWKEHMRLSNVSEMINKDIISHFVLRLVYCRSDELKKWFLSMETALFRHRFRLKKIEEQRAIVGEFGLPYKAVIGAELESLKERLGLVARSHGQISSDVENIYYKVPFEEVPDLVASRRVLLQKGFAFVAGTQLVSLVVTQFRSHLSKALILTNRKWTTTIREREKDRLTPIVEALSTSYLGPDYSQSNEYADISLKDIDQVSKSSFPLCMRHLFEKLREDHHLKHGGRMQLGLFLKLDDALAFWREEFTKKVGSERFDKEYAYAIRHNYGKEGKRTDYTPYACSKIITSAPGAGDHHGCPYRHFSEDNLKAALSRMGLSSRGMEDVMDKVRNRHYQLACTLTFEAVYGTSCDTGINHPNQYFEESQKILKSKTPAAPV | soluble
5 | SSALPRTLGELQLYRVLQRANLLSYYETFIQQGGDDVQQLCEAGEEEFLEIMALVGMATKPLHVRRLQKALREWATNPGLFSQPVPAVPVSSIPLFKISETAG | soluble
6 | MSFEYNEKVLDHFLNPRNVGVLEDANGVGQCGNPACGDAMLFTIKVNPENDVIEDVRFKTFGCGSAIAVSSMLTEMVKGKPIQYALNLTYKDIFEELGGLPPQKIHCTNLGLETLHVAIKDYLMKQGRVEEASKIPDCYEEEEEQEESKEFEFLSGTLEHHHHHH | soluble
7 | MTFTGLPPEDVPALMTGAVIPHPSVAGRADAYLPSPCIQNHAANLAFLPDGTLSCVWFGGTMEGMRDISIYMSRLPPGSGRWSEPEKMSDDPEKSEQNPLIFNAPDGKTWLLYTSQTSGNQDGSIVKCRISDDGGKTFGPVQILCDSPGTFVRQQIVVNDRGDWLLPIFRCVGLEGQRWSGDADTAAVLISRDGGASWQMRDIPDSIGAVHMNILPLGGCEMIAFYRNRFAETILSSRSADGGETWSPPEPTELPNNNSSIQATVLDNGGIAMVYNHSNATMSDARRQSLYDEIEGDECGENAAVVADAGRKAVWGVPRAPLSLAISRDGGRTFPHRIDLDTGDGFCLSNNSKDSLNREFSYPSVIEGSDGTLHVAYTYYRRALEHHHHHH | not soluble
8 | MGSDKIHHHHHHMIHRQTNQLNTDNLEKKQRQYKYAFNLAEIDSESFPMHIFRKYAKDVFEDHQLSLLQRGERQGEYILRQQISHYLFNSRGVTCHPNQIIVGSSTSQLLDMITNLLKKEEFIIEQPSYPPIKHTLDKKGISYIQVPVEQNGIQIDPILNTNNNILYITPSHQFPTGYVTNLKKRTQLINWSHQAKQRYIIEDDYDSEFRYFGKPIPALQSLDTKGKVIYISTFSKSLYPSCRIAYIVLPQNLMHKYNNQKYKEGNTVPVHVQHMIAQFMISGKFERHLNKMRKIYRDKLDYILKRLKPYNTQIKIEGALTGMHFTITVNNGLSMKQCLKNAKKNNLKLKPYHYENYSKVYPKFILGFGGIKKEELEDHVNALIHSLVI | not soluble
9 | MDYLIVGAGFTGATLAERLAAAGKRVLVVDRRDHIGGNAYDEMDPHGVLVHRYGPHIFHTNSKKVFDYLSRFTEWRPYYHRVRAVVEGKEVPLPFSLATLRALFSPKLADRLEEKLIARFGYGARVPILRLREEEDPDLRFLADYVYKNVFEGYTLKQWGLRPEELSPSVTARVPVLVSHDTRYFQDAYQAMPKEGYTALFRRMLAHPNIKLLLQADWKEVEGEVKFARLVFTGPIDEFFGYLHGPLPYRSLRFRMELHPGPWAQEVGTVNYPNEHPYTRVTEFKHLTGQDYLPHSTLCYEYPEAYEPGRNEPYYPVPREENEERYRLYLEEAKKLKGVYFAGRLGDYRYYNMDQAVARALKLFEEIVHE | soluble
10 | MVSDEDELNLLVIVVDANPIWWGKQALKESQFTLSKCIDAVMVLGNSHLFMNRSNKLAVIASHIQESRFLYPGKNGRLGDFFGDPGNPPEFNPSGSKDGKYELLTSANEVIVEEIKDLMTKSDIKGQHTETLLAGSLAKALCYIHRMNKEVKDNQEMKSRILVIKAAEDSALQYMNFMNVIFAAQKQNILIDACVLDSDSGLLQQACDITGGLYLKVPQMPSLLQYLLWVFLPDQDQRSQLILPPPVHVDYRAACFCHRNLIEIGYVCSVCLSIFCNFSPICTTCETAFKISLPPVLKAKKKKLKVSA | not soluble
11 | MRKTLNVVVNGERTEIVTYKGTVQGALHDNGITLAPKDKVTPSLESKISKNETITINKAVNVKVKTEDGEKEIVSAEDNVEDMLKSEGISFDDDDKILPDKKESLKDGMNVEVVKVDVKKVTEVHPIEFTTEVKKDESKPQTYTEVLNDGQDGEKKVTRELVYENGKEVSNNVIQELVVKEPVNKEVVKGTKETQTLSRGGESINFKKKLSVKSTAYNHPLGSAEAYTASGMHVLRDPNGYSTIAVDPSVIPLGTKLYVEGYGYAIAADTGGAIKGNRVDLFFNTEAEASNWGVRNLDVYILNLEHHHHHH | soluble
12 | MRTDLALDFSVNKENKTITIKREFAAVRAIVWEAFTRAEILDQWWAPKPWKAKTKSMDFKEGGTWLYAMVGPNGEEHWSICEYAIIKPIERFTGKDGFTDASGKLNTEMPRSNWDMRFIDKGEITEVQYHISYDDVAQLEATIQMGFKEGITMAMENLDELLVSGKKLEHHHHHH | soluble
13 | MSLENYWVDERTLVVSGDFFGVSTGLLGGWKRVRHAFNHTVSEEFHSMEPAEYLRKVARGYGLKSYFGLLTSVPIEKLSVKGCGEVTVFATAGVMNPNERVGTINIIAVFECRMSRAAMLNAIITATEAKTKALLEEGHNFTGTNTDAVVVLCTQKGGYHRYCGPASEVGQKLWRCAGEAVKDSLARWEGHHHHHH | not soluble
14 | MGSDKIHHHHHHMKKQPSATVNQEKESELIEGLMSNDDLAYETLVRQYSAKMYAVARRFFCTNDDAQECLQKAFIQVFKNITSFKQNSNLSTWLHRITVNEALMMLRQRKRQNTTSLEEFAQHYNEYGERTVFADNLGNNLNNNLGTILGGNVETLFEKTETKLSLNDIIFQLPEKYCNVLLLRDIQEISTKETAEILAISESLVKTQLHRARLLLKAILEQDDKDNLESNWKVNSHVND | not soluble
15 | GAMESEEPVFSLEQNRDDAMAALASTPTFQQTFINSISTQAMDLCKKYNLYPSVMIAQAALESNWGRSELGKAPNYNLFGIKGSYNGKSVTMKTWEYSDSKGWYQINANFAKYPSHKESLEDNAKKLRNGPSWDSSYYKGAWRENAKTYKDATAWLQGRYATDNTYASKLNTLISSYNLTQYD | soluble
16 | GHHDKRFKAFIAHDGIFNMEMQYLETEEKWFANWDMGGAYWEKQNPTAQRTFANSPHLFVEKWDTPILCIHGEKDYRILANQAMAAFDAAVMRGVPAELLIYPDENHWVLKPQNGVLWQRTFFEWLDQWLKPN | not soluble
17 | MTISFNTVPSNTLVPLFYAEMNNSAANTAVTSAPALLIGHASNDAAIEVNSLVLMPSADYARQICGAGSQLARMVEVYRQTDPFGELYVIAVPEARGAAATVRVTVAGEAEESGTLSLYVGRSRVQVPVVNGDDATAVATAIKEAVNGVITLPFTASSDAGVVTLTARHKGLYGNELPVCLNYYGSGGGEILPAGLRVVTEVGAAGSGAPDLTAAVAAMGDEAFDFIGLPFNDAASINMMMTEMNDSSGRWSYARQLYGHVYTAKLGTLSELVGAGDMHNQQHITLAGYEKETQSPVDELVASRLAREAVFIRNDPARPTQTGELVGMLPAPKGKRFIMTEQQTLLSHGVATAYVEGGTLQIQRSVTTYKKNAYGVADNSYLDSETLHTSAYVLRKLKSVITSKYGRHKLANDGTRFGPGQAIVTPAVIKGELLATYRQMERAGIVENYDLFKQYLIVERDADNPNRLNTLFPPDYVNQLRVFAVVNQFRLQYSEESA | not soluble
18 | MSLDKKAVFADVAEKDASFINENYYISPSLDTLSSYSLLQLRKVPHLVVGHKSYGKIEFLEPVDLAGIPLTSLGGVIITFEPKTCIIYANLPNRPKRGEGINVRARITCFNCYPVDKSTRKPIKDPNHQLVKRHIERLKKNPNSKFESYDADSGTYVFIVNHAAEQTEGHHHHHH | soluble
19 | MALNDNPIPKSVPLHPKSGKYFHNLHARDLSNIYQQCYKQIDETINQLVDSTSPSTIGIEEQVADITSTYKLLSTYESESNSFDEHIKDLKKNFKQSSDACPQIDLSTWDKYRTGELTAPKLSELYLNMPTPEPATMVNNTDTLKILKVLPYIWNDPTCVIPDLQNPADEDDLQIEGGKIELTCPITCKPYEAPLISRKCNHVFDRDGIQNYLQGYTTRDCPQAACSQVVSMRDFVRDPIMELRCKIAKMKESQEQDKRSSQAIDVL | soluble
20 | MAHHHHHHMEKDDHYKTSEKYEICTSFENIGIDEGLLRGIYAYGFEKPSAIQQRGIKPILNGRDVILQSQSGTGKTCVFAVGALNCVNRNLNETQVIILSPTRELAEQTQKVCLALADYIHVTIYCCIGGKKMSDDIKALNNGVHVISGTPGRIYHMLNLRHLKCKYIKQLVIDEADEMLNKGFKEQVYDIYRFLSPNTQIILSSATLPQEVLEITNKFMHKPVKILVKRDELTLEGIKQFFVSIEKEQWKYETLADLYESLTITQAVVFCNTQMKVDWLTKKMLESNFTVCKMHAGMSQSERDDIMLKFRQCKFRVLISTDIWGRGLDVQEVSLVVNYDLPNSRESYIHRIGRSGRFGRKGVAINFVKNDDIKILRDIEQYYSTQIDEMPMNITELL | not soluble
